Experimental data: patent publication US20160159865A1 (CHILDREN S HOSPITAL AND RESEARCH CENTER AT OAKLAND, published 2016)

Molecular target: T1, human factor H (human, UniProt P08603 19-1231)
T1 construct: Purified human factor H was used in the ELISA; also called fH; human fH
Experiment: ELISA, fHbp (2 µg/ml) on plate, human factor H titrated

T1 sequence (P08603 19-1231 Y402H/T493R limits assumed): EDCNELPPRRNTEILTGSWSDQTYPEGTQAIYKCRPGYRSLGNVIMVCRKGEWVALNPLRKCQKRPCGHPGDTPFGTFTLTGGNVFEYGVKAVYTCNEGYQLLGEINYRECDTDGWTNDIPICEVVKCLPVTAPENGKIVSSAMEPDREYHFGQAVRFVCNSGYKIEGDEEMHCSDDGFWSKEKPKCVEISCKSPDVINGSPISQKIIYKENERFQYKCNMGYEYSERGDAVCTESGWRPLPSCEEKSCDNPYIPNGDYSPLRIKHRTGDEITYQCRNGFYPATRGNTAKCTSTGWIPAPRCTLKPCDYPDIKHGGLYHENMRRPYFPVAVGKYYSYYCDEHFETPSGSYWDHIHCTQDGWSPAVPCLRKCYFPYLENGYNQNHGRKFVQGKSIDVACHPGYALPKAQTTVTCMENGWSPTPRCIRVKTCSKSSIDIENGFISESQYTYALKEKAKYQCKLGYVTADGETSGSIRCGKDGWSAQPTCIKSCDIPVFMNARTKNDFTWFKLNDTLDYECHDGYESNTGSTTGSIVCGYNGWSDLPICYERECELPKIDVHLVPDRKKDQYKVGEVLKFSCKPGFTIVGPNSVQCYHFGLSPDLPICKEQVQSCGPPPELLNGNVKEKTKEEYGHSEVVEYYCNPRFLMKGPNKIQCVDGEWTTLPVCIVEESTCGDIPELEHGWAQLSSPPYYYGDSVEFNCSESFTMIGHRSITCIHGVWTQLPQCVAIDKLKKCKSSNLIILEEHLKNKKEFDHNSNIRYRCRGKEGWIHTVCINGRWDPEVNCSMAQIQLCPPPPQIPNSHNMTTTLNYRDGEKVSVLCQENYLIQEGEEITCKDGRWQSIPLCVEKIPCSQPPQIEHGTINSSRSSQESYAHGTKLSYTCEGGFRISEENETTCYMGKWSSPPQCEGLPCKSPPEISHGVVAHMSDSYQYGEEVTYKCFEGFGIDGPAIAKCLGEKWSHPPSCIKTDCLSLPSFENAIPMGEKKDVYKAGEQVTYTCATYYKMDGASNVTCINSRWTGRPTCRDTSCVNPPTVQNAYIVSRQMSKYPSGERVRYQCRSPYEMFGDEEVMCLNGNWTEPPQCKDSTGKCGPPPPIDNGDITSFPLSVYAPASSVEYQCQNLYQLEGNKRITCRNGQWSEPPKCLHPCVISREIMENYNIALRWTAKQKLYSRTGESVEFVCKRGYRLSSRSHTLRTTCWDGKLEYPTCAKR

B1: fHbp ID 79 H223R mutant (other)
chain: CSSGGGGSGSGGVAADIGTGLADALTTPLDHKDKGLKSLTLEDSIPQNGTLTLSAQGAEKTFKAGDKDNSLNTGKLKNDKISRFDFVQKIEVDGQTITLASGEFQIYKQDHSAVVALQIEKINNPDKIDSLINQRSFLVSGLGGEHTAFNQLPGGKAEYHGKAFSSDDAGGKLTYTIDFAAKQGHGKIEHLKTPEQNVELASAELKADEKSHAVILGDTRYGSEEKGTYRLALFGDRAQEIAGSATVKIGEKVHEIGIAGKQ
notes: Purified recombinant mutant
binding result: no binding (tested: human factor H 0.0012 to 20 µg/ml)
